This is an account of results in the supplement of paper PMC12042874.

± gives the uncertainty stated by the source.

The data set can be described thus: amyloid nucleation score (Sup35N fusion, yeast selection) (log enrichment); library NNK2; higher = more nucleation; inactive = no reads after selection. The procedure, abridged:
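Libraries of peptides of 20 random codons fused to Sup35N were expressed in psi-negative yeast and induced 24 hours with 100 μM copper sulfate. Selection was 7 days at 30°C on medium lacking adenine and uracil, and plasmid inserts were Illumina-sequenced before and after selection. Nucleation score is the DiMSum log enrichment of output over input reads, centred on the mode score of non-aggregating sequences, and sequences with under 100 input reads were left out.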
In the case of LLHIFLYGLSLILWWSHRTR, the amyloid nucleation score was determined as 7.06 ± 0.079.
LLIREMEHLFVEAKVENLRE returned an amyloid nucleation score of 0.531 ± 0.33.
The substance LLKGVASVQSTDAVRHMWSS returned an amyloid nucleation score of 0.252 ± 0.8.
On to LLLTLCSDHMLNGNVVGHDW, for which the amyloid nucleation score turned out to be 4.05 ± 0.049.
LLPRDALFPPIFVIISECVF: the amyloid nucleation score was -0.063 ± 0.45.
As for LLSVCFSRARC, the amyloid nucleation score is 1.07 ± 0.23.
As to LLTCTYMQF, the amyloid nucleation score is -0.124 ± 0.54.
Turning to LLTGVISGYQIRWGTTSLNG, the amyloid nucleation score is 2.49 ± 0.1.
In turn, LLTMGVGRVGAWEQN had an amyloid nucleation score of 0.801 ± 0.82.
For the substance LLVGLIASPPGGTGVTLFPT, the amyloid nucleation score is 4.15 ± 0.049.
Substance LLWQTYIPNAGENAVSSQLF registered an amyloid nucleation score of -0.87 ± 1.
In the case of LMAKVRLRVGLGHWLDVWG, the amyloid nucleation score was 2.93 ± 0.12.
Under LMGKGMSTLGDDGVFSRG stands -0.378 ± 0.49; under LMINGRLRDITMDATVYCNS, 0.764 ± 0.2; under LMVSRFVF, -0.206 ± 0.76.
LNCTYN registered an amyloid nucleation score of -0.311 ± 0.79.
Regarding LNEVFDLVPSYCKFSVVRGL, the amyloid nucleation score is -1.14 ± 0.64.
Turning to LNFFNDR, the amyloid nucleation score entry is “inactive”.
In turn, LNIHLFSVTGLCDEC showed an amyloid nucleation score of -0.344 ± 0.76.
Then LNIQFGGSLHWKSGGVATEA, with 0.103 ± 0.28; and LNKNRHGVGIFGIIKYKDMT, with “inactive”; and LNKQRSCFNVMGGWRKIYPS, with 0.783 ± 0.13.
In turn, LNLSWVCSLGRYFVGGYISF registered an amyloid nucleation score of -1.29 ± 0.63.
For the substance LNMVFW, the amyloid nucleation score result is “inactive”.
The substance LNNIFDLQYWQLWMSRQVKS showed an amyloid nucleation score of 0.809 ± 0.14.
LNNLLS gave an amyloid nucleation score of 0.315 ± 0.46.
Under LNNNGASNGFTTYSALNVG stands -0.59 ± 0.28; under LNRFGSSNSLITKFC, -1.58 ± 1.
As for LNVMFCNVVNGFYYMDSFVC, the amyloid nucleation score came to 6.838 ± 0.044.
Regarding LNWGSNIQAGVHTSRPWGSY, the amyloid nucleation score was determined as 0.248 ± 0.43.
In the case of LNYRH, the amyloid nucleation score result was “inactive”.
Substance LNYTRCQGSTKVDHSLGNLM registered an amyloid nucleation score of -0.482 ± 0.31.
Turning to LPHESFNQHGKLFMAD, the amyloid nucleation score was determined as 0.054 ± 0.46.
As to LPKREPGDKGTLLYYDQELS, the amyloid nucleation score stood at 0.167 ± 0.53.
LPQMNMGFLGSLNFEGMKRA displayed an amyloid nucleation score of 1.47 ± 0.2.
Then LPVGPLVRDNTWHRRVQRWL, with 1.11 ± 0.29; and LPVHANNGVNMFILIVPPGS, with 5.948 ± 0.051.
For LQCIGNYSDWGSMVGREQSK, the amyloid nucleation score was -0.066 ± 1.
Substance LQDYCACNGVSCCIVYCKSF had an amyloid nucleation score of 8.693 ± 0.053.
For LQLASNVHEHKQNGLSHRIN, the amyloid nucleation score was determined as 0.439 ± 0.5.
As for LRAWDYRISNSHTRLDIDFT, the amyloid nucleation score entry was “inactive”.
LRFRGV returned an amyloid nucleation score of 0.339 ± 0.28.
In the case of LRGSFNLVSYFTQLRSCDYF, the amyloid nucleation score is -1.27 ± 0.78.
The substance LRGYVY showed an amyloid nucleation score of 0.228 ± 1.
Then LRIGRYQN, with “inactive”.
As to LRPDSNWTGVESLFR, the amyloid nucleation score is -0.66 ± 0.55.
Then LRPDYLERYFWLWHSTDKLF, with -1.14 ± 0.49; and LRQYKRALAVGLDWFPSVLR, with 0.113 ± 0.8; and LRRTTGYSKLTCLTHG, with 4.34 ± 0.048.
Take LRRVSGRLDSIWSWCVRCNE: the amyloid nucleation score is -1.02 ± 1.1.
For the substance LRSHLEYGRLCVCTQELMRR, the amyloid nucleation score stood at 4.882 ± 0.041.
LRSSKKCYTILYVSYTLK yielded an amyloid nucleation score of -1.15 ± 1.1.
The substance LRSWSLAMRGDIMGTVRWLR returned an amyloid nucleation score of 0.413 ± 0.56.
Substance LRVWYDSSAVDMLNVLMSFP came in with an amyloid nucleation score of 5.737 ± 0.032.
Turning to LRWAYMNTARQACMKAENG, the amyloid nucleation score was -0.079 ± 0.62.
For LRWDGEDWRWDALWVTSSVC, the amyloid nucleation score is 0.512 ± 0.2.
In turn, LRYIFKMS showed an amyloid nucleation score of -1.34 ± 0.49.
